Results reported in patent US10781452B2, “FLT3 receptor antagonists for the treatment or the prevention of pain disorders” (INSTITUT NATIONAL DE LA SANTE ET DE LA RECHERCHE MEDICALE …, priority 2010, dated 2020).

Assays:
TRPV1 = molecular target: T1, TRPV1 (Mus musculus, UniProt Q704Y3); assay: FL-induced mechanical hyperalgesia with intraplantar TRPV1 inhibitor; format: in vivo, mice; details: intraplantar 10 μl at 30 μg/ml, one hour before FL injection; 12 h
T1 construct: from tissue; host or cells: living mice, hindpaw
Description: (§1) Mechanical withdrawal thresholds: The sensitivity to punctuate mechanical stimuli was assessed using the dynamic plantar aesthesiometer (Bioseb, France). Each mouse was placed in a Plexiglass chamber. Sixty minutes later, a mechanical stimulus (a small-diameter blunt metallic filament) was applied to the plantar surface with an increasing force and the paw withdrawal latencies were measured. For each point, mice were tested three times and the responses for each paw were averaged.
To investigate the potential role(s) of FL in modulating noxious sensitivity through the activation of TRPV1 receptor in vivo, we tested the effect of the TRPV1 inhibitor sb-366791 on the FL-induced mechanical hyperalgesia.

mice hindpaws [1] = assay: Mechanical withdrawal (von Frey hair filaments) after hindpaw injection of FL or NGF; format: in vivo
Description: (§2) Animals: Adult Swiss mice (8-10 week old) (CERJ, Le Genest St Isle, France) were used according to the guidelines of the International Association for the Study of Pain. Mice were housed in cages with a 12/12 hr light/dark cycle and fed food and water ad libitum.
(§3) Behavioral experiments: Behavioral responsiveness of the mice was tested following one week of habituation to the testing environment and the observer.
as §1
We next tested the role of FL in modulating noxious mechanical sensitivity in vivo. […] For comparison, NGF (100ng/10μ1) induced a foot withdrawal response decrease of 30% at 12 H (P<0.001) (FIG. 1B).

mice hindpaws [2] = assay: Thermo-nociceptive testing (radiant heat paw withdrawal) after hindpaw injection of FL or NGF; format: in vivo; details: for paw withdrawal latency drop (radiant heat stimulus), thermal hyperalgesia: 12 H after hindpaw injection of 100 ng/10 μl, vs vehicle-injected hindpaws
Description: as §2, §3
Thermo-nociceptive testing: Nociceptive threshold to acute thermal stimulation was measured using the paw retrieval test (Bioseb, France). Focused light from 12.5 W projection bulb was applied to the middle of the plantar surface of the hind paw (3 mm diameter). The projection bulb was turned off as soon as the mouse removed its paw, and a digital timer connected in series measured the paw withdrawal latency to an accuracy of 0.1 s. We used a cut-off latency of 15 s to avoid the possibility of tissue damage. For each point, mice were tested three times and the responses for each paw were averaged.
FL produces thermal and mechanical hyperalgesia in vivo: To investigate the potential role(s) of FL in modulating noxious heat sensitivity in vivo, we first injected FL (100 ng/10 μl) into mice hindpaws, and latency to ipsilateral paw withdrawal from a radiant heat stimulus was measured. […] At 12 H after injection, FL induced a significant thermal hyperalgesia (latency drop around 30%) compared to control mice hindpaws injected with vehicle (p<0.001) (FIG. 1A). For comparison, NGF (100 ng/10 μ) induced a significant latency drop of 25% at 12 H (FIG. 1A).

[3] = system: TRPV1 positive sensory neurons; assay: FL potentiation of capsaicin [Ca2+]i response (Fura-2 imaging) in DRG neurons; format: cell-based, mice
Description: DRG neurons primary culture: Primary neuronal cultures were established from lumbar (L4 to L6) dorsal root ganglia (DRG) of adult mice as previously described (Boudes et al, 2009). Ganglia were treated twice with collagenase A (1 mg/ml, Roche Diagnostic, France) for 45 minutes (37° C.) and then with trypsin-EDTA (0.25%, Sigma, St Quentin Fallavier, France) for 30 minutes. They were mechanically dissociated by passing 8 to 10 times through the tip of a fire-polished Pasteur pipette in neurobasal (Life Technologies, Cergy Pontoise, France) culture medium supplemented with 10% foetal bovine serum and DNase (50 U/ml, Sigma, St Quentin Fallavier, France). Isolated cells were collected by centrifugation and suspended in neurobasal culture medium supplemented with 2% B27 (Life Technologies), 2 mM glutamine, penicillin/streptomycin (20 U/ml, 0.2 mg/ml). Dissociated neurons were plated on poly-D,L-ornithine (0.5 mg/ml)-laminin (5 μg/ml)-coated glass coverslips at a density of 2500 neurons per well and were incubated in an incubator with a humidified 95% air/5% CO2 atmosphere. Two hours after plating, the culture medium was carefully removed and replaced to eliminate dead cells and tissue debris. The cells were maintained in culture at 37° C. until experiments were performed. […]
Cells were imaged with a inverted microscope equipped with a NEOFLUAR 25×0.8 objective lens (Axiovert 200, Zeiss, Le Pecq, France) and a CCD camera (Cool SNAP ES, Roper Scientific, France). […] A Fura filter cube with 400 long pass dichroic and D510/40m emission band pass was used to collect fluorescence emissions separately for each wavelength. Images were acquired and analyzed with Metafluor software (Molecular Devices). Changes in intracellular calcium concentrations ([Ca^2+]i ) were monitored as changes of the ratio of the fura-2-fluorescence intensity recorded at 340 nm and 380 nm excitation wavelengths (ΔF340/380). […]
Each neuron was stimulated three times by capsaicin at 4-5 min interval. […] Response areas were calculated as a measure of total Ca^2+ influx. […]

[4] = 12H after hindpaw injection of 100 ng/10 μl
[5] = all capsaicin responders, potentiated and unaffected

T1 sequence (Q704Y3 whole entry): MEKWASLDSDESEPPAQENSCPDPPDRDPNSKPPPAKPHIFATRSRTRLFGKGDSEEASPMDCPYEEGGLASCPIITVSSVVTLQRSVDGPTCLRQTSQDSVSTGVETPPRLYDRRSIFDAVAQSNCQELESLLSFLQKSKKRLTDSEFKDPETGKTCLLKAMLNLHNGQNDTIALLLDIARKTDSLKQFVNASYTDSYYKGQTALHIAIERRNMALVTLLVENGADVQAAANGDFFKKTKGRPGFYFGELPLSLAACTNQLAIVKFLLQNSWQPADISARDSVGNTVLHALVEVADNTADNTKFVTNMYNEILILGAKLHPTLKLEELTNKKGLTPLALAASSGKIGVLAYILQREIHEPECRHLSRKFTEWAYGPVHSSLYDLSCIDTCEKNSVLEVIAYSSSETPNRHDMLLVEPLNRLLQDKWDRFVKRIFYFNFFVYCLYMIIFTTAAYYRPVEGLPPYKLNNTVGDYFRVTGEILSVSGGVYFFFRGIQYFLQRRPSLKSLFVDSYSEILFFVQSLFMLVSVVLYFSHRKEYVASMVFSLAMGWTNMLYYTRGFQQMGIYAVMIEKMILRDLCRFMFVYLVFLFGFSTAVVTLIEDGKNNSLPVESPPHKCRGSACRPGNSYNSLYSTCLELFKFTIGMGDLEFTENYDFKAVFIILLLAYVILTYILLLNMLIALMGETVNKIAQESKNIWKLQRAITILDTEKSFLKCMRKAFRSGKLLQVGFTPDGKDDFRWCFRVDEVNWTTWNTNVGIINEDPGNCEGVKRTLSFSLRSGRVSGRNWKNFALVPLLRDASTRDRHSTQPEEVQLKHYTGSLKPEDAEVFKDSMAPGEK

| Molecule | foot withdrawal response to von Frey hair filaments after FL injection, vs control mice (TRPV1) | foot withdrawal response decrease (mice hindpaws [1]; [4]) [%] | paw withdrawal latency drop (radiant heat stimulus), thermal hyperalgesia (mice hindpaws [2]) | cells that respond to capsaicin showing potentiation of the capsaicin response ([3]; FL at 10 and 100 ng/ml, adult DRG neurons) [%] | mean fold increase in TRPV1 response, ΔFarea [3, 5] | mean fold increase in TRPV1 response, ΔFpeak [3, 5] [%] | foot withdrawal response to von Frey hair filaments reduced to, compared to control (mice hindpaws [1]; [4]) [%] | onset of mechanical hyperalgesia (mice hindpaws [1]; hindpaw injection 100 ng/10 μl) | return of mechanical hyperalgesia to control values (mice hindpaws [1]; hindpaw injection 100 ng/10 μl) [days] | onset of heat hyperalgesia (mice hindpaws [2]; hindpaw injection 100 ng/10 μl) | return of heat hyperalgesia to control values (mice hindpaws [2]; hindpaw injection 100 ng/10 μl) [days] |
| --- | --- | --- | --- | --- | --- | --- | --- | --- | --- | --- | --- |
| COc1cccc(NC(=O)/C=C/c2ccc(Cl)cc2)c1 [sb-366791] | did not show any change in the foot withdrawal response | – | – | – | – | – | – | – | – | – | – |
| NGF: nerve growth factor, used as positive control | – | 30 | 25% | – | – | – | – | – | – | – | – |
| FL: cytokine which is a natural ligand of the FLT3 receptor (protein, UniProt P49771 27-235, looked up) Fms-related tyrosine kinase 3 …: TQDCSFQHSPISSDFAVKIRELSDYLLQDYPVTVASNLQDEELCGGLWRLVLAQRWMERLKTVAGSKMQGLLERVNTEIHFVTKCAFQPPPSCLRFVQTNISRLLQETSEQLVALKPWITRQNFSRCLELQCQPDSSTLPPPWSPRPLEATAPTAPQPPLLLLLLLPVGLLLLAAAWCLHWQRTRRRTPRPGEQVPPVPSPQDLLLVEH | – | – | around 30% | 56 | ≈ 512% | 212 | 50 | within one/two hours | 6 | within one/two hours | 6 |
